Results taken from a protein production outcome set (Wang et al. 2014).

Test: label from the status in PepcDB records
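Further: failed if final PepcDB status was selected cloned or expressed and not failed if soluble or beyond.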

Row | Sequence | protein production
1 | AEIFTTLSCEPDIPNPPRIANRTKNSLTLQWKAPSDNGSKIQNFVLEWDEGKGNGEFCQCYMGSQKQFKITKLSPAMGCKFRLSARNDYGTSGFSEEVLYYTSGC | not failed
2 | MDWDDEYSHNSFDLHCLLNSFPGDLEFEQIFSDIDEKIEQNAASIKHCIKEIQSEINKQCPGVQLQTTTDCFEWLTNYNYSTSESSFISHGDLIKFFKTLQDLLKNEQNQEEMTLDLLWDLSCHSSVSFPSTLSGTSFHFLSRTSLHSVEDNSSMDVKSMWDDIRLHLRRFLVSKLQSHNEINNSQQKILLKKQCLQQLLFLYPESEVIIKYQNIQNKLLANLLWNCFPSYNRDSNLDVIAHGYQSTMLKLYSVIKEDFNTLCEILAPSSMVKFIKETYLDTVTEEMAKFLENFCELQFRENAVRVVKTSKSSSKHRGAVHALG | not failed
3 | MATIGSLLLWAITIYSYMIIGYILMSWFPNARESSFGQFLGSIVEPYLAPFRKIIPPLGMIDISPIVAIFALTFARYGVHAIFF | failed
4 | MNPLVIKLGGVLLDSEEALERLFTALVTYREKHERPLVIMHGGGCLVDELMKRLALPVVKKNGLRVTPADQIDIITGALAGTANKTLLAWAVKHQINAVGLCLADGNTVTVTLLDAELGHVGKAQPGSAALVQTLLAAGYMPIISSIGITVEGQLMNVNADQAATALAATLGADLILLSDVSGILDGKGQRIAEMTAQKAEQLIAQGIITDGMVVKVNAALDAARSLGRPVDIASWRHSEQLPALFNGVPIGTRISV | not failed
5 | MFADISAQHWAFAIYVIGAIAICLTMIGLAALLGGRAQGRTKNKPFESGVDSVGTARLRFSAKFYLVAMFFVIFDVEALYLFAWSVSVRESGWVGFIEATIFIGLLLIGLVYLWRIGALEWSPRKPQLNNKNTD | failed
6 | MDTFDINTEINEDEINVEKIMEKIRENIRKQKGAGIFPEKIHGDLQQGSLLEVTPGESNIQRDLDYINSNWDIQNNSYFISSHRPFVGKFLVRGRDLVHGEIRRYVDPVFWKQTEFNGSTVRLLNDTAGKFIYYNNKIEQLQSEMDSKIEQLQSEMDSKIEHLRPELGNKIERLRSEFENQIEQLKSEIDDSIKAEVNSIISLMNLDIENKAWLASVLDGKIEKGYKNKKTGTPDPGDLDINYFRFEEQFRGSREDIKQRQSCFMNYFLGCSNVLDIGCGRGEFLELASEHGIGAKGVDIDDTMVDFCLSKGLNVVKQEAISYLESVDDKSLDGIFIDQVVEHLEPDYLIKLLKLCFQKLKYGYYIFAETVNPLSFVSFANFYIDMTHKKPIHPETLKFLLTSAGFRDVDTMFFSPVSEKARLQKVPINNDMEEWVKNYLDIYNHNLEKLNGILYGAQDYAVIGKK | failed
7 | MTHKVAFSFADGKTLFFPVKANEILLDAALRNGIKIPLDCREGVCGTCQGRCESGQYSQDYVDEEALSPQDLEQRKMLTCQTRVQSDAAFYFDFDSSLCHSADPVQLQGSVIDVRQVSESTAILHLDLGGHQAPLDFLPGQYARLSIPGTGTSRAYSFANRPAADNQLQFLIRLLPDGVMSNYIRERCLVGDTLQLEAPLGAFYLRQISRPLILVAGGTGLSALLAMLEQIVEQGCQQPVHLYYGVRHSRDLCELERIQAHGERLADFRFTPVISDANPDWPGKRGYISEHFDSSELRDQDTDMYVCGPPPMVDSIRIWLQEQQLNRVQLYYERFTESNI | failed
8 | MMLSSNSFSLNLSNEDYIWPLEEDQEETTDSSGPMMLSPPLPEGACFNFEDRNTVYVHSRRPEDTPKSFELYSIPEDLALDSPFPSCEQTTFFTTKPDKSFLLDIKNSSPLNIGRMQNSRS | not failed
9 | IKQMLLDWCRAKTRGYEHVDIQNFSSSWSDGMAFCALVHNFFPEAFDYGQLSPQNRRQNFEVAFSSAETHADCPQLLDTEDMVRLREPDWKCVYTYIQEFYRCLVQKGLVKTKKS | not failed
10 | MITILIFINIVKVVLFLFFLMTGTKIISGKMADEFKRFGLPSFFNFLTGAFEIVGAIGMLIGIWISTVALWAGLLLGGTMLAAALTLIVLARDPFKKAIPALVLFVLSLGISLYHIF | failed
11 | DRFPVTPVSREDLAGVLEAVERLRHWRPAAAGAWAVDYRGMLEGVHAQGVFDDGHWADLLRLLELSGAPREFGHGDLVLANVVRSRGRQVLIDWASSALYLPGLDLAQLWMLLGDVPGARARIEVEVADRADDRDGMMPFLVNLTLLLYRERRAHRRF | failed
12 | MKLATKKNGTRDGLLMVVSKDLTRCVPATEVFHPRNLAPTMQVALDNWEAVAPQLEEIYTALNNGTVAGFEEFEAHYCESPLPRAYQWADGSAYVNHVELVRKARGAEMPESFWTDPLMYQGGSDAFIGPCDNIEFASDEWGIDFEGEVAVVTGDVPMGASIAEAQESIRLIMLVNDVSLRGLIPAELAKGFGFFQSKPSSAFSPVAVTPDELGDEWYENKVHLPLVSTYNHKPFGRPNAGVDMTFDFADLIVHATKTRPLSAGAIIGSGTVSNKQGTDHGTSIEEGGVGYSCIAEVRMIETIRDGKPTTNFMSFGDSIKLEMFDVEGNTIFGAIDQQVSQYLKH | failed
13 | EKEKDTIAAEHKQEASVLLNLHRNKINYLIGETMARMTSLSIAIDRPVDIKKMQSILEKTFDSEPRFSGLYFLNAKGDVTASTTELKTKVNLADRSFFIKAKETKKTVISDSYSSRITGQPIFTICVPVLDSKRNVTDYLVAAIQIDYLKNLINLLSPDVYIEVVNQDGKMIFASGQASHAEDQKPVSGYLDDISWNMKVYPNPVTIEELSKSL | not failed
14 | MFVFMLLLLLPFTISKAKDFPANPIEKAGYKLDFSDEFNGPTLDREKWTDYYLPHWCKDPESAKANYRFENGSLVEYITEDQKPWCPEHDGTVRSSAIMSFDKSWIHNFSGTTDNHERNEWRGYTTKYGYFEIRAKLSNTGGGGHQAWWMVGMQDDTNDWFNSKQTGEIDILETFFSKKDTWRIAAYGWNDPNFQTSWTISEDKVPSGDPTSEYHIYAMEWTPTALKFYYDNELFKVIYGSPDYEMGTILNIYTDAGSGAHNDVWPKEWAIDYMRVWKPVDGYKESESLNNYLIRNRQTGKFLYIEENNDKVSYGDITLKNEKNAKWSKEYRDGYTLLKNNETGEYLNIENQTGYIEHGKVPKTWWSAQWSEVPVDGYTRFVNRWKPNMSIHTESYEGVLQYGNVPNTYWTSQWQLIPVE | not failed
15 | MSLKTLNIYLMRHGKVDAAPGLHGQTDLKVKEAEQQRIAMAWKTKGYDVAGIISSPLSRCHDLAQILAEQQLLPMTTEDDLQEMDFGDFDGMPFDLLTEHWKKLDAFWQSPAHHSLPNAESLSTFSQRVSRAWSQIINDINDNLLIVTHGGVIRIILAHVLGVDWRNPQWYSTLAIGNASVTHITITIDDQIYASVRSIGVPLVEEGHHHHHH | not failed
16 | MLSERRLKVLRAIVQDYVGTEEPVGSKALTERHNLGVSPATVRNDMAALEDEGFIAQPHTSAGRIPTDKGYRLFVDKLAGVKPMTAPERRAIQNFLEGAVDLDDVVARTVRLLAQLTRQVAVVQYPSLTRSTVRHVELLSLAPARLMLVLITDTGRVEQRMVDCPAPFGEASLADLRARLNSRVAGRRFADVPALVEDLAEPFEAEDRGTVSTVLSTLLETLVEENEERLMIGGTANLTRFGHDFPLVIRPVLEALEEQVVLLKLLGEAKDPGVTVRIGHENAHEGLNSTSVVSVGYGSGGEAVAKLGVVGPTRMDYPGTMGAVRAVARYVGQILAES | failed
17 | MQNQYFTVQENYKERFYQIPKVFFTSENYKNLTNDMKIAYAILRDRLNLSIKNSWVDEDGNIYFVYSNEKLMEILNCKKEKLTKIKKGL | failed
18 | GSSGSSGMPMTLGYWDIRGLAHAIRLFLEYTDSSYEEKRYTMGDAPDYDQSQWLNEKFKLGLDFPNLPYLIDGSHKITQSNAILRYLGRKHNLCGETEEERIRVDILENQLMDNRMVLARLCYNADFEKLKPGYLEQLPGMMRLYSEFLGKRPWFAGDKITFVDFIAYDVLERNQVFEAKCLDAFPNLKDFIARFEGLKKISDYMKTSRFLPRPMFTKMATWGSNSGPSSG | not failed
19 | MRWKGRRVSSNVEDRRGSGAKVGGISIIGLVVAFVAWKFFGVDPQQAYQATQQITAAQNPSSNAPQQLTADQKEASDFVGTILADTEDTWTPIFKQLGQTYVPPKLVLFNGIVQSGCGTAQSAMGPFYCPTDQKVYIDTSFFKDMREQMGISGEQNQTELSRQDQAGDFAQAYVVAHEVGHHIQNLLGISSQVQQAQAQGSRAQANQLSVRLELQADCFAGIWANHNQQRTQFLEAGDIEEAMDAAQKIGDDYLQKRSTGQVVPDSFTHGTSQQRMHWFEVGLKSGDLNQCDTF | failed
20 | MDSVTLACGNGGKETNALIERVFMPYLKEWIVAFDEDAPKFEASGEYCVSTDSFVITPLIFNGGDIGKLCVCGSANDVSVQGGEPLYLNMGFILEEGLEISLLKQILQSIQKELFKANLKLLSLDTKVVPKGSVDKLFINTTCIGKIIKPGISSYHLQQGQAIILSDTIANHGASLFAMRNEIKLKTNLESDCQLLYPLLKPLFLSDLKIDALRDATRGGLASVLNEWANSSRVKIVIEEEKIPLKEETKGICEILGLEPYALANEGVFVLALNQKDAPKALEILKSNEKAKNACVIGKVFENPYPSVVLKNAWGFERILEVPEGELLPRIC | failed
21 | MLRIIVIGTTGSGKTTFARALAQRLGLPHGEQDAWNHEANWQMAPLGRFRARVDTFTSQPAWVMDGNYGKARDLGWARADTLIWLDFPAWLVYSRLVRRTLWRVLTQQELWNGNRETWRGALLDPEGPLRWFWKTHWRRRQETPALAAEFPHLRLVRLRSPGEARRFLAAVGRGHPTALEHHHHHH | failed
22 | SLTGEESDTLRKIVLEECLPNQQQNQNPSPCAEVKPNAGYVVLKDLNGPLQYLLMPTYRINGTESPLLTDPSTPNFFWLAWQARDFMSKKYGQPVPDRAVSLAINSRTGRTQNHFHIHISCIRPDVREQLDNNLANISSRWLPLPGGLRGHEYLARRVTESELVQRSPFMMLAEEVPEAREHMGSYGLAMVRQSDNSFVLLATQRNLLTLNRASAEEIQDHQCEILR | not failed
23 | MRITHLGHSCILVEAAGQRILVDPGNLSRSWRGLTDLDAILVTHRHPDHVDPEHIGALVDANSGAVVRAEEGACHEIPALDADPVAPGDVLQIGEVRIEAVGGRHAVIHRDLEPIGNVGYLIGEGLGTILYHPGDELDETPRGVDVLACPAHAPWAAMKETVDFARSVGARHGFLIHEGLLNGRGWQLSFDRHQEMVP | failed
24 | MFPRALAIGTPAQHKATEAPVTSTSASGLARFNTLEETAALAELHEACAATAWARHLLAARPFATAEDLYAASDAAMAELSAEDLAEAMAGHPPIGRPKPGDATSSREQAGMAGAAEELKAEMLELNLAYQDKFGHVFLICATGRTGEQMRDAALERIGNSPEQEREIVRTELGKINRIRLTRLVEQDARPLEHHHHHH | not failed
25 | MKEARKRMVKRAVQEIKDGMNVNLGIGMPTLVANEIPDGVHVMLQSENGLLGIGPYPLEGTEDADLINAGKETITEVTGASYFDSAESFAMIRGGHIDLAILGGMEVSEQGDLANWMIPGKMVKGMGGAMDLVNGAKRIVVIMEHVNKHGESKVKKTCSLPLTGQKVVHRLITDLAVFDFVNGRMTLTELQDGVTIEEVYEKTEADFAVSQSVLNS | not failed
26 | VKTPGTRYVTHKQLDEKLKNFVTKTEFKEFQTVVMESFAVQNQNIDAQGEQIKELQVEQKAQGKTLQLILEALQGINKRLDNLES | not failed
